Results as given in patent US20180273587A1 (AILERON THERAPEUTICS, published 2018).
Positions of bridges follow the written chain, without caps; N, C: chain ends. Non-standard residues stand in square brackets, D forms with d. Phe(4-CF3) = N[C@@H](Cc1ccc(C(F)(F)F)cc1)C(=O)O; Phe(4-tBu) = CC(C)(C)c1ccc(C[C@H](N)C(=O)O)cc1; R8 = C=CCCCCCC[C@@](C)(N)C(=O)O; S5 = C=CCCC[C@](C)(N)C(=O)O; Abu = CC[C@H](N)C(=O)O

How the values were obtained:
Experiment in all cases: Ki; method not stated; unit not printed (nM per Table 6)
MCL-1 = biological target: T1, MCL-1 (UniProt Q07820 172-327, limits assumed)
T1 construct: Target of the Ki columns; also called Myeloid cell leukemia 1

BCL-XL = biological target: T2, BCL-XL (UniProt Q07817 1-209)
T2 construct: Target of the Ki columns

BCL-2 = biological target: T3, BCL-2 (UniProt P10415 1-217, limits assumed)
T3 construct: Target of the Ki columns
T3 sequence (P10415 1-217 limits assumed): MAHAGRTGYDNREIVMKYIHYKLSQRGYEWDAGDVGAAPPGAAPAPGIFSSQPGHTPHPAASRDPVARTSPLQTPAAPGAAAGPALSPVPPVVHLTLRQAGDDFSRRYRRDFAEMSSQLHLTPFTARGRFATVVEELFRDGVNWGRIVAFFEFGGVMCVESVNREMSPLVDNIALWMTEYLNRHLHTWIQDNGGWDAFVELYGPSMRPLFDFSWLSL

T1 sequence (Q07820 172-327 limits assumed): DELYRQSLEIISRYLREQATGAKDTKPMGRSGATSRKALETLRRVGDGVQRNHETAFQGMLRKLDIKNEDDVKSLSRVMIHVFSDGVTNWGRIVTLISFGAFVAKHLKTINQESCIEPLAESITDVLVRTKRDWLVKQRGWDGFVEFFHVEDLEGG
T2 sequence (Q07817 1-209): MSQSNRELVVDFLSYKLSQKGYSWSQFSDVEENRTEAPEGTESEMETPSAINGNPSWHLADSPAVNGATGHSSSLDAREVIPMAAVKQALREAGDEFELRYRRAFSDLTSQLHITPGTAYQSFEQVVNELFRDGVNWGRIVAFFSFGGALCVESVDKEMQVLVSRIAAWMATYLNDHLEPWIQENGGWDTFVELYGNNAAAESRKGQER

Row | Binder | Ki (MCL-1) | Ki (BCL-XL) | Ki (BCL-2)
1 | IWIAQALRAIGDAXNAYYA (N-terminal Ac; $r8 at 9 and $ at 16 (crosslinked); Bip at 14; C-terminal NH2) [SEQ ID NO: 1747] | 6.5 nM | 100 nM | 114 nM
2 | Ac-IWIAAALR[R8]I[Abu]DAFN[S5]YYA-NH2 (staple 9-16; SMILES CC[C@@H]1NC(=O)[C@H]([C@@H](C)CC)NC(=O)[C@](C)(NC(=O)[C@H](CCCNC(=N)N)NC(=O)[C@H](CC(C)C)NC(=O)[C@H](C)NC(=O)[C@H](C)NC(=O)[C@H](C)NC(=O)[C@@H](NC(=O)[C@H](Cc2c[nH]c3ccccc23)NC(=O)[C@@H](NC(C)=O)[C@@H](C)CC)[C@@H](C)CC)CCCCCCC=CCCC[C@@](C)(C(=O)N[C@@H](Cc2ccc(O)cc2)C(=O)N[C@@H](Cc2ccc(O)cc2)C(=O)N[C@@H](C)C(N)=O)NC(=O)[C@H](CC(N)=O)NC(=O)[C@H](Cc2ccccc2)NC(=O)[C@H](C)NC(=O)[C@H](CC(=O)O)NC1=O) [SEQ ID NO: 1738] | 106 nM | 112 nM | 131 nM
3 | Ac-IWIAQALR[R8]IGDA[Phe(4-CF3)]N[S5]YYA-NH2 (staple 9-16; SMILES CC[C@H](C)[C@H](NC(C)=O)C(=O)N[C@@H](Cc1c[nH]c2ccccc12)C(=O)N[C@H](C(=O)N[C@@H](C)C(=O)N[C@@H](CCC(N)=O)C(=O)N[C@@H](C)C(=O)N[C@@H](CC(C)C)C(=O)N[C@@H](CCCNC(=N)N)C(=O)N[C@]1(C)CCCCCCC=CCCC[C@@](C)(C(=O)N[C@@H](Cc2ccc(O)cc2)C(=O)N[C@@H](Cc2ccc(O)cc2)C(=O)N[C@@H](C)C(N)=O)NC(=O)[C@H](CC(N)=O)NC(=O)[C@H](Cc2ccc(C(F)(F)F)cc2)NC(=O)[C@H](C)NC(=O)[C@H](CC(=O)O)NC(=O)CNC(=O)[C@H]([C@@H](C)CC)NC1=O)[C@@H](C)CC) [SEQ ID NO: 1744] | 8.2 nM | 107 nM | 104 nM
4 | Ac-IWIAAALR[R8]IGDAGN[S5]YYA-NH2 (staple 9-16; SMILES CC[C@H](C)[C@H](NC(C)=O)C(=O)N[C@@H](Cc1c[nH]c2ccccc12)C(=O)N[C@H](C(=O)N[C@@H](C)C(=O)N[C@@H](C)C(=O)N[C@@H](C)C(=O)N[C@@H](CC(C)C)C(=O)N[C@@H](CCCNC(=N)N)C(=O)N[C@]1(C)CCCCCCC=CCCC[C@@](C)(C(=O)N[C@@H](Cc2ccc(O)cc2)C(=O)N[C@@H](Cc2ccc(O)cc2)C(=O)N[C@@H](C)C(N)=O)NC(=O)[C@H](CC(N)=O)NC(=O)CNC(=O)[C@H](C)NC(=O)[C@H](CC(=O)O)NC(=O)CNC(=O)[C@H]([C@@H](C)CC)NC1=O)[C@@H](C)CC) [SEQ ID NO: 1741] | 29.7 nM | 171 nM | 145 nM
5 | Ac-IWIAAALR[R8]IGEAFN[S5]YYA-NH2 (staple 9-16; SMILES CC[C@H](C)[C@H](NC(C)=O)C(=O)N[C@@H](Cc1c[nH]c2ccccc12)C(=O)N[C@H](C(=O)N[C@@H](C)C(=O)N[C@@H](C)C(=O)N[C@@H](C)C(=O)N[C@@H](CC(C)C)C(=O)N[C@@H](CCCNC(=N)N)C(=O)N[C@]1(C)CCCCCCC=CCCC[C@@](C)(C(=O)N[C@@H](Cc2ccc(O)cc2)C(=O)N[C@@H](Cc2ccc(O)cc2)C(=O)N[C@@H](C)C(N)=O)NC(=O)[C@H](CC(N)=O)NC(=O)[C@H](Cc2ccccc2)NC(=O)[C@H](C)NC(=O)[C@H](CCC(=O)O)NC(=O)CNC(=O)[C@H]([C@@H](C)CC)NC1=O)[C@@H](C)CC) [SEQ ID NO: 1740] | 63.6 nM | 135 nM | 142 nM
6 | Ac-IWIAAALR[R8]IGDAFD[S5]YYA-NH2 (staple 9-16; SMILES CC[C@H](C)[C@H](NC(C)=O)C(=O)N[C@@H](Cc1c[nH]c2ccccc12)C(=O)N[C@H](C(=O)N[C@@H](C)C(=O)N[C@@H](C)C(=O)N[C@@H](C)C(=O)N[C@@H](CC(C)C)C(=O)N[C@@H](CCCNC(=N)N)C(=O)N[C@]1(C)CCCCCCC=CCCC[C@@](C)(C(=O)N[C@@H](Cc2ccc(O)cc2)C(=O)N[C@@H](Cc2ccc(O)cc2)C(=O)N[C@@H](C)C(N)=O)NC(=O)[C@H](CC(=O)O)NC(=O)[C@H](Cc2ccccc2)NC(=O)[C@H](C)NC(=O)[C@H](CC(=O)O)NC(=O)CNC(=O)[C@H]([C@@H](C)CC)NC1=O)[C@@H](C)CC) [SEQ ID NO: 1748] | 1.5 nM | 25.9 nM | 35.3 nM
7 | Ac-IWIAAALR[R8]IGDAFE[S5]YYA-NH2 (staple 9-16; SMILES CC[C@H](C)[C@H](NC(C)=O)C(=O)N[C@@H](Cc1c[nH]c2ccccc12)C(=O)N[C@H](C(=O)N[C@@H](C)C(=O)N[C@@H](C)C(=O)N[C@@H](C)C(=O)N[C@@H](CC(C)C)C(=O)N[C@@H](CCCNC(=N)N)C(=O)N[C@]1(C)CCCCCCC=CCCC[C@@](C)(C(=O)N[C@@H](Cc2ccc(O)cc2)C(=O)N[C@@H](Cc2ccc(O)cc2)C(=O)N[C@@H](C)C(N)=O)NC(=O)[C@H](CCC(=O)O)NC(=O)[C@H](Cc2ccccc2)NC(=O)[C@H](C)NC(=O)[C@H](CC(=O)O)NC(=O)CNC(=O)[C@H]([C@@H](C)CC)NC1=O)[C@@H](C)CC) [SEQ ID NO: 1749] | 1.8 nM | 17.9 nM | 30.7 nM
8 | Ac-IWIAAALR[R8]IGDAFQ[S5]YYA-NH2 (staple 9-16; SMILES CC[C@H](C)[C@H](NC(C)=O)C(=O)N[C@@H](Cc1c[nH]c2ccccc12)C(=O)N[C@H](C(=O)N[C@@H](C)C(=O)N[C@@H](C)C(=O)N[C@@H](C)C(=O)N[C@@H](CC(C)C)C(=O)N[C@@H](CCCNC(=N)N)C(=O)N[C@]1(C)CCCCCCC=CCCC[C@@](C)(C(=O)N[C@@H](Cc2ccc(O)cc2)C(=O)N[C@@H](Cc2ccc(O)cc2)C(=O)N[C@@H](C)C(N)=O)NC(=O)[C@H](CCC(N)=O)NC(=O)[C@H](Cc2ccccc2)NC(=O)[C@H](C)NC(=O)[C@H](CC(=O)O)NC(=O)CNC(=O)[C@H]([C@@H](C)CC)NC1=O)[C@@H](C)CC) [SEQ ID NO: 1750] | 4.9 nM | 36.5 nM | 71.6 nM
9 | Ac-IWIAAALR[R8]IGDAFS[S5]YYA-NH2 (staple 9-16; SMILES CC[C@H](C)[C@H](NC(C)=O)C(=O)N[C@@H](Cc1c[nH]c2ccccc12)C(=O)N[C@H](C(=O)N[C@@H](C)C(=O)N[C@@H](C)C(=O)N[C@@H](C)C(=O)N[C@@H](CC(C)C)C(=O)N[C@@H](CCCNC(=N)N)C(=O)N[C@]1(C)CCCCCCC=CCCC[C@@](C)(C(=O)N[C@@H](Cc2ccc(O)cc2)C(=O)N[C@@H](Cc2ccc(O)cc2)C(=O)N[C@@H](C)C(N)=O)NC(=O)[C@H](CO)NC(=O)[C@H](Cc2ccccc2)NC(=O)[C@H](C)NC(=O)[C@H](CC(=O)O)NC(=O)CNC(=O)[C@H]([C@@H](C)CC)NC1=O)[C@@H](C)CC) [SEQ ID NO: 1751] | 8 nM | 44.1 nM | 67.5 nM
10 | Ac-IWIAAALR[R8]IGDAFH[S5]YYA-NH2 (staple 9-16; SMILES CC[C@H](C)[C@H](NC(C)=O)C(=O)N[C@@H](Cc1c[nH]c2ccccc12)C(=O)N[C@H](C(=O)N[C@@H](C)C(=O)N[C@@H](C)C(=O)N[C@@H](C)C(=O)N[C@@H](CC(C)C)C(=O)N[C@@H](CCCNC(=N)N)C(=O)N[C@]1(C)CCCCCCC=CCCC[C@@](C)(C(=O)N[C@@H](Cc2ccc(O)cc2)C(=O)N[C@@H](Cc2ccc(O)cc2)C(=O)N[C@@H](C)C(N)=O)NC(=O)[C@H](Cc2c[nH]cn2)NC(=O)[C@H](Cc2ccccc2)NC(=O)[C@H](C)NC(=O)[C@H](CC(=O)O)NC(=O)CNC(=O)[C@H]([C@@H](C)CC)NC1=O)[C@@H](C)CC) [SEQ ID NO: 1752] | 8 nM | 36.3 nM | 57.4 nM
11 | Ac-IWIAAALR[R8]IVDAFN[S5]YYA-NH2 (staple 9-16; SMILES CC[C@H](C)[C@H](NC(C)=O)C(=O)N[C@@H](Cc1c[nH]c2ccccc12)C(=O)N[C@H](C(=O)N[C@@H](C)C(=O)N[C@@H](C)C(=O)N[C@@H](C)C(=O)N[C@@H](CC(C)C)C(=O)N[C@@H](CCCNC(=N)N)C(=O)N[C@]1(C)CCCCCCC=CCCC[C@@](C)(C(=O)N[C@@H](Cc2ccc(O)cc2)C(=O)N[C@@H](Cc2ccc(O)cc2)C(=O)N[C@@H](C)C(N)=O)NC(=O)[C@H](CC(N)=O)NC(=O)[C@H](Cc2ccccc2)NC(=O)[C@H](C)NC(=O)[C@H](CC(=O)O)NC(=O)[C@H](C(C)C)NC(=O)[C@H]([C@@H](C)CC)NC1=O)[C@@H](C)CC) [SEQ ID NO: 1739] | 104 nM | 140 nM | 120 nM
12 | Ac-IWIAQALR[R8]IGDA[Phe(4-tBu)]N[S5]YYA-NH2 (staple 9-16; SMILES CC[C@H](C)[C@H](NC(C)=O)C(=O)N[C@@H](Cc1c[nH]c2ccccc12)C(=O)N[C@H](C(=O)N[C@@H](C)C(=O)N[C@@H](CCC(N)=O)C(=O)N[C@@H](C)C(=O)N[C@@H](CC(C)C)C(=O)N[C@@H](CCCNC(=N)N)C(=O)N[C@]1(C)CCCCCCC=CCCC[C@@](C)(C(=O)N[C@@H](Cc2ccc(O)cc2)C(=O)N[C@@H](Cc2ccc(O)cc2)C(=O)N[C@@H](C)C(N)=O)NC(=O)[C@H](CC(N)=O)NC(=O)[C@H](Cc2ccc(C(C)(C)C)cc2)NC(=O)[C@H](C)NC(=O)[C@H](CC(=O)O)NC(=O)CNC(=O)[C@H]([C@@H](C)CC)NC1=O)[C@@H](C)CC) [SEQ ID NO: 1745] | 21.2 nM | 154 nM | 158 nM
